According to paper PMC2646509 (Microbiology (Reading, England), 2008):

Biological target: the molecule itself
Test: cross-linking

Protein	binding result	stoichiometry N
PrfA L140F (natural protein) MNAQAEEFKKYLETNGIKPKQFHKKELIFNQWDPQEYCIFLYDGITKLTSISENGTIMNLQYYKGAFVIMSGFIDTETSVGYYNLEVISEQATAYVIKINELKELLSKNLTHFFYVFQTLQKQVSYSLAKFNDFSINGKFGSICGQLLILTYVYGKETPDGIKITLDNLTMQELGYSSGIAHSSAVSRIISKLKQEKVIVYKNSCFYVQNLDYLKRYAPKLDEWFYLACPATWGKLN	binds	–
PrfA Y63C (natural protein) MNAQAEEFKKYLETNGIKPKQFHKKELIFNQWDPQEYCIFLYDGITKLTSISENGTIMNLQYCKGAFVIMSGFIDTETSVGYYNLEVISEQATAYVIKINELKELLSKNLTHFFYVFQTLQKQVSYSLAKFNDFSINGKLGSICGQLLILTYVYGKETPDGIKITLDNLTMQELGYSSGIAHSSAVSRIISKLKQEKVIVYKNSCFYVQNLDYLKRYAPKLDEWFYLACPATWGKLN	binds	–
wild-type PrfA (positive regulatory factor A) (natural protein) MNAQAEEFKKYLETNGIKPKQFHKKELIFNQWDPQEYCIFLYDGITKLTSISENGTIMNLQYYKGAFVIMSGFIDTETSVGYYNLEVISEQATAYVIKINELKELLSKNLTHFFYVFQTLQKQVSYSLAKFNDFSINGKLGSICGQLLILTYVYGKETPDGIKITLDNLTMQELGYSSGIAHSSAVSRIISKLKQEKVIVYKNSCFYVQNLDYLKRYAPKLDEWFYLACPATWGKLN	–	2
